Columns and labels:
CHO-GS-KSV1 cell line = experiment: SEAP expression from forskolin-inducible promoters in stably transfected cell line, forskolin or NKH477 induction; type: cell-based, chinese hamster; conditions: for Promoter strength ranking: SEAP, stably transfected CHO-GS-KSV1
Method: The forskolin-inducible promoters were then tested in a stably transfected CHO-GS-KSV1 cell line.
Cell suspensions of 6×10^5 cells per mL were incubated on an orbital shaker set at 8% CO2, 20% O2, 37° C., 85% relative humidity and 140 rpm overnight. 2.86×10^7 cells were centrifuged at 200 g for 3 minutes. Media was then aspirated and cell pellet resuspended in 2 mL fresh CD-CHO media to obtain a concentration of 1.43×10^7 cells per mL. 700 μL of cell suspension was added to each of two electroporation cuvettes each containing […] of linearised DNA in 100 μL of sterile TE buffer (Thermofisher, 12090015). Each cuvette was electroporated, delivering a single pulse of 300V, 900 μF with resistance to infinity. Immediately after delivery of pulse electroplated cells were transferred to Erlenmeyer 125 mL flask containing 20 mL of CD-CHO media pre-warmed to 37° C. Electroporated cells from two cuvettes are combined into a single 125 mL flask to generate one pool of cells. Cells are cultured on an orbital shaker set at 8% CO2, 20% O2, 37° C., 85% relative humidity and 140 rpm. Cells are transferred to fresh CD-CHO media 24 hours after transfection and cell cultures monitored and given fresh CD-CHO media every 2-4 days. Usually after about 10-14 days cell numbers will be high enough to start passaging. […]
The promoter activity and inducibility of FMP-02, FORCSV-10, FOR-CMC-009, and FLP-01 were also tested in the stably transfected CHO-GS-KSV1 cell line. […] After this point, the SEAP activity in the medium was assessed as described below.
SEAP Reporter Gene Assay, chemiluminescent (Roche, CAT #11 779 842 001) was used to measure SEAP activity as per the manufacturer's protocol. […] The signal is then read at 477 nm and compared to a calibration curve. […]

HEK-293 cells = experiment: Optimum inducer concentration to induce expression; type: cell-based, human
[1] = cited from earlier work
HEK293-F cells = experiment: Luciferase expression from forskolin-inducible promoters, transient transfection, forskolin induction; type: cell-based, human; conditions: transiently transfected HEK293-F, 20 μM forskolin
Method: Luciferase readouts were normalised to β-galactosidase to produce normalised relative luminometer units (RLUs). β-galactosidase containing pcDNA6 plasmid was used as internal control for transfection efficiency (Thermofisher, V22020). β-galactosidase activity was measured as per manufacturer's instructions (Mammalian pGalactosidase Assay Kit, 75707/75710, Thermo Scientific) using 25 μl of lysate. 25 μl of lysate was transferred into a microplate well and mixed with 25 μl of β-galactosidase Assay Reagent, equilibrated to room temperature. The mixture was incubated at 37° C. for 30 min and absorbance measured at 405 nm.
The tested promoters were synthesised directly upstream of the ATG of PM-RQ plasmid and the suspension cell lines were transiently transfected with the PM-RQ plasmid.
40 ml of cells were grown in a 250 ml vented Erlenmeyer flask (Sigma-Aldrich CLS431144) at 37° C., 20% O2, 8% CO2 with agitation at 100 rpm. Cells were seeded as described in the manufacturer's instructions (300,000 cells/ml). HEK293-F were obtained from Thermofisher, R79007.
One day before transfection, the cells were counted using a haemocytometer and split to 500,000 cells/ml. […]
24 hours after transfection, the promoters were induced by addition of 20 μM forskolin and luciferase activity was measured 0, 3, 5 and 24 hours after induction. Luciferase activity was measured as described below. […]

C=C[C@@]1(C)CC(=O)[C@]2(O)[C@@]3(C)[C@@H](O)CCC(C)(C)[C@@H]3[C@H](OC(=O)CCN(C)C)[C@H](OC(C)=O)[C@@]2(C)O1.Cl [NKH 477]
Potency as inducer of the promoters compared with forskolin (CHO-GS-KSV1 cell line; 7.2 μM NKH477 vs 20 μM forskolin): slightly more potent inducer | Concentration determined to be optimum to induce expression (HEK-293 cells): about 8 μM | Water solubility [1]: water-soluble

B1: FMP-02: synthetic forskolin-inducible promoter, SEQ ID NO: 41; 8×AP1(1) TFBS with MinTK minimal promoter (nucleic acid)
DNA: TGAGTCAGATGATGCGTAGCTAGTAGTTGAGTCAGATGATGCGTAGCTAGTAGTTGAGTCAGATGATGCGTAGCTAGTAGTTGAGTCAGATGATGCGTAGCTAGTAGTTGAGTCAGATGATGCGTAGCTAGTAGTTGAGTCAGATGATGCGTAGCTAGTAGTTGAGTCAGATGATGCGTAGCTAGTAGTTGAGTCAGTAGTCGTATGCTGATGCGCAGTTAGCGTAGCTGAGGTACCGTCGACGATATCGGATCCTTCGCATATTAAGGTGACGCGTGTGGCCTCGAACACCGAGCGACCCTGCAGCGACCCGCTTAA
modifications: Synp-FMP-02
notes: 8×AP1(1) TFBS with MinTK minimal promoter
Promoter strength ranking (fold induction) (HEK293-F cells): weakest | Promoter strength ranking (CHO-GS-KSV1 cell line): weakest

B2: FLP-01: synthetic forskolin-inducible promoter, SEQ ID NO: 42; 8×AP1(1) TFBS with G6PC minimal promoter (nucleic acid)
DNA: TGAGTCAGATGATGCGTAGCTAGTAGTTGAGTCAGATGATGCGTAGCTAGTAGTTGAGTCAGATGATGCGTAGCTAGTAGTTGAGTCAGATGATGCGTAGCTAGTAGTTGAGTCAGATGATGCGTAGCTAGTAGTTGAGTCAGATGATGCGTAGCTAGTAGTTGAGTCAGATGATGCGTAGCTAGTAGTTGAGTCAGTAGTCGTATGCTGATGCGCAGTTAGCGTAGCTGAGGTACCGTCGACGATATCGGATCCGGGCATATAAAACAGGGGCAAGGCACAGACTCATAGCAGAGCAATCACCACCAAGCCTGGAATAACTGCAGCCACC
modifications: Synp-FLP-01
notes: 8×AP1(1) TFBS with G6PC minimal promoter
Promoter strength ranking (fold induction) (HEK293-F cells): strongest | Promoter strength ranking (CHO-GS-KSV1 cell line): strongest
